Measurements: the supplement of paper PMC9732359
± gives the uncertainty stated by the source.

Test: protein stability index of a GFP-peptide fusion (yeast GPS) (PSI 1-4); higher = more stable; sorted into four equal gates, so the index is relative within each strain
How it was run: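 Mid-log yeast cultures in leucine-free medium, carrying a pooled plasmid library, were sorted into four equal gates by their GFP/Cherry fluorescence ratio. Each plasmid expressed Cherry along with GFP fused upstream of a tiled 17-residue yeast protein peptide. Plasmids recovered from each gate were PCR-amplified and Illumina-sequenced, with reads assigned to strains by barcodes. The protein stability index was obtained by summing each gate's read frequency weighted by its gate number.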

| Sequence | protein stability index (doa10∆) | protein stability index (pdr5∆) | protein stability index (san1∆) | protein stability index (ubr1∆) |
| --- | --- | --- | --- | --- |
| RLENKLSEIESLDEILL [SRP68] | 2.97 ± 0.095 | 2.99 ± 0.11 | 2.92 ± 0.11 | 3 ± 0.085 |
| RLFIGDQNNKKMVGLRG [SNF2] | 2.65 ± 0.1 | 2.87 ± 0.085 | 2.36 ± 0.1 | 2.69 ± 0.082 |
| RLKQVFNRALDQSISKL [NNF1] | 2.05 ± 0.056 | 2.11 ± 0.039 | 1.93 ± 0.043 | 2.16 ± 0.036 |
| RLLITGTPLQNNLHELW [ISW2] | 2.68 ± 0.066 | 2.61 ± 0.076 | 2.99 ± 0.062 | 2.83 ± 0.064 |
| RLLNTNVDGNIKIVYAL [RPS18A] | – | – | – | 3.27 ± 0.16 |
| RLNKLNSNGIAMASLYL [SMD1] | 2.82 ± 0.075 | 2.95 ± 0.063 | 2.78 ± 0.065 | 2.67 ± 0.069 |
| RLSNEMHALKNRSEQNG [RGR1] | 3.32 ± 0.12 | 3.25 ± 0.17 | 3.09 ± 0.16 | 2.9 ± 0.12 |
| RLTGSLLAHKVADEEAN [RPC37] | 1.22 ± 0.057 | 1.32 ± 0.068 | 1.16 ± 0.12 | 1.06 ± 0.056 |
| RNADELSSYQKKIIKCD [PRE5] | 2.25 ± 0.058 | 2.08 ± 0.084 | 2.58 ± 0.086 | 1.65 ± 0.049 |
| RNEKIAVHVTVRGPKAE [RPL11A] | 2.54 ± 0.067 | 2.3 ± 0.061 | 1.93 ± 0.12 | 2.62 ± 0.053 |
| RNETSVDEEDENGTHND [YCG1] | 3.08 ± 0.26 | – | – | – |
| RNIILEARFDVLITSYE [ISW2] | 2.85 ± 0.11 | 2.22 ± 0.076 | 2.41 ± 0.088 | 2.61 ± 0.074 |
| RNMAEEFEYDDEPDEQG [CYT1] | 3.12 ± 0.073 | 3.17 ± 0.061 | 3.17 ± 0.064 | 3.09 ± 0.059 |
| RNQEKKMEKKKSSSLSL [SNM1] | 3.53 ± 0.22 | 3.5 ± 0.16 | 2.68 ± 0.22 | 2.98 ± 0.1 |
| RPKCGDCGSALQGISTL [RPL34A] | 1.34 ± 0.08 | 1.42 ± 0.067 | 1.32 ± 0.1 | 1.41 ± 0.052 |
| RPKKVKLEGSENSEPPA [SNF2] | 3.13 ± 0.095 | 2.95 ± 0.08 | 3.33 ± 0.079 | 3.28 ± 0.063 |
| RPNGRKDHDLKIPLPEV [POP1] | 3.06 ± 0.055 | 3.18 ± 0.058 | 2.99 ± 0.073 | 3.15 ± 0.065 |
| RQFLKANKTNLIESLNT [YML103C/NUP188] | 2.76 ± 0.053 | 2.97 ± 0.062 | 2.87 ± 0.047 | 2.99 ± 0.039 |
| RQLTSMEFSNLYKEFFN [NUT1] | 2.48 ± 0.079 | 2.59 ± 0.068 | 2.85 ± 0.089 | 2.25 ± 0.067 |
| RQMKDVNAPLPTPFKVD [RPN2] | 3.07 ± 0.079 | 3.04 ± 0.066 | 2.79 ± 0.064 | 2.86 ± 0.053 |
| RQPSLHKMSMMAHRVKV [RPO21] | 2.2 ± 0.085 | 2.37 ± 0.073 | 2.81 ± 0.09 | 1.68 ± 0.082 |
| RQQAYKTAQTLDENLNS [YJL041W/NSP1] | 2.84 ± 0.078 | 2.76 ± 0.079 | 3.12 ± 0.067 | 2.8 ± 0.05 |
| RQQKLLLETKLRQQYEI [SWI1] | 3.06 ± 0.11 | 2.93 ± 0.1 | 3.17 ± 0.068 | 2.91 ± 0.11 |
| RQREMAEEQTKLQSQSL [YLR018C/POM34] | 3.18 ± 0.045 | 3.28 ± 0.046 | 3.11 ± 0.05 | 3.1 ± 0.036 |
| RQYVGQLAPSSVDPQSS [DIS3] | 2.69 ± 0.05 | 3.06 ± 0.059 | 2.92 ± 0.063 | 2.62 ± 0.055 |
| RREELQQRIREIGLLPE [SMC3] | 3.34 ± 0.12 | 3.06 ± 0.2 | 3.21 ± 0.075 | 3.45 ± 0.066 |

| Sequence | protein stability index (doa10∆) | protein stability index (pdr5∆) | protein stability index (san1∆) | protein stability index (ubr1∆) |
| --- | --- | --- | --- | --- |
| RRFNSSIGRTAQGKEFG [RPL17A] | 3.03 ± 0.078 | 2.96 ± 0.089 | 2.95 ± 0.098 | 2.89 ± 0.07 |
| RRGYQVYREVCAACHSL [CYT1] | 2.22 ± 0.073 | 1.94 ± 0.059 | 1.47 ± 0.085 | 1.59 ± 0.039 |
| RRILAAAAAAAAAVSGN [SSN3] | 1.41 ± 0.12 | 1.26 ± 0.1 | 1.06 ± 0.26 | 1.59 ± 0.094 |
| RRLPEDESYARAYRIIR [QCR7] | 2.81 ± 0.056 | 2.72 ± 0.061 | 2.53 ± 0.043 | 2.42 ± 0.043 |
| RRLPMTMFTAEQSELLK [SNF2] | 2.99 ± 0.073 | 3.08 ± 0.073 | 2.83 ± 0.053 | 2.91 ± 0.055 |
| RRRAFKRSQKKHKKKHL [RPB4] | 3.16 ± 0.091 | 3.1 ± 0.078 | 3.13 ± 0.057 | 3.46 ± 0.077 |
| RRRRLKKVEEEENAATL [RPB4] | 3.17 ± 0.2 | 3.75 ± 0.26 | – | – |
| RRRSSTNKSKRPSITEA [MED1] | 3.02 ± 0.09 | 3.15 ± 0.061 | 2.87 ± 0.08 | 3.04 ± 0.077 |
| RSAWNNNNDNDANRNAN [GRR1] | 2.55 ± 0.041 | 2.65 ± 0.036 | 2.62 ± 0.034 | 2.7 ± 0.039 |
| RSDLQSKIQEIESIRSC [YIL149C/MLP2] | 1.89 ± 0.058 | 2.79 ± 0.09 | 2.67 ± 0.099 | 2.52 ± 0.089 |
| RSIRGSFTSQGTISIQL [MTR3] | 2.78 ± 0.067 | 2.73 ± 0.057 | 2.77 ± 0.066 | 2.61 ± 0.041 |
| RSKFLSTVAKFLARVIK [IRR1] | 3.04 ± 0.07 | 2 ± 0.07 | 2.24 ± 0.11 | 2.2 ± 0.047 |
| RSLASFEQTAFSRHAQQ [SIR4] | 2.84 ± 0.059 | 2.73 ± 0.045 | 2.82 ± 0.05 | 2.77 ± 0.05 |
| RSNFRVNLSQEALQYDP [SNU114] | 2.69 ± 0.074 | 2.31 ± 0.09 | 2.93 ± 0.047 | 3.1 ± 0.088 |
| RSPRVVTNALDNIDEKV [NUT1] | 2.92 ± 0.056 | 2.79 ± 0.054 | 2.77 ± 0.058 | 3.03 ± 0.058 |
| RSSSASNEFVPNTSDNN [SWI1] | 2.72 ± 0.068 | 2.77 ± 0.09 | 2.69 ± 0.059 | 2.9 ± 0.063 |
| RSTDEFNGAQLKAVTVE [RPT5] | 2.86 ± 0.29 | 3.71 ± 0.24 | – | 2.06 ± 0.19 |
| RSTDRDRVKVIECFKPG [CSL4] | 3.14 ± 0.14 | 3.1 ± 0.2 | 3.26 ± 0.1 | 2.99 ± 0.088 |
| RTAKAYLKVSEEEIKKF [PRP8] | 2.98 ± 0.057 | 3.11 ± 0.075 | 3.12 ± 0.053 | 3.26 ± 0.049 |
| RTIANQDHFHRLNYLYQ [RPR2] | 2.64 ± 0.062 | 2.88 ± 0.043 | 2.73 ± 0.034 | 2.58 ± 0.026 |
| RTLEAITATLVGTVRCE [CSL4] | 1.73 ± 0.12 | 1.91 ± 0.12 | 1.5 ± 0.14 | 2.47 ± 0.16 |
| RTLLTEEIEPKLEKLRN [SMC2] | 3.02 ± 0.074 | 3 ± 0.068 | 3.18 ± 0.042 | 3.21 ± 0.054 |
| RTLTAVHDKVLEDMVFP [RPS7B] | 3 ± 0.081 | 3.09 ± 0.069 | 2.81 ± 0.068 | 3.27 ± 0.074 |
| RTMLELITQLDGFDPRG [RPT1] | 2.6 ± 0.061 | 2.81 ± 0.061 | 2.91 ± 0.066 | 2.73 ± 0.096 |
| RTTTNTTAEPKAKRAKT [TAF14] | 2.67 ± 0.28 | 2.98 ± 0.25 | 3.1 ± 0.088 | 2.59 ± 0.2 |
| RVHRRNNRWAENNYKKR [RPS23A] | 3.26 ± 0.29 | 3.55 ± 0.21 | – | 3.54 ± 0.1 |
